Results taken from patent US20240294595A1, “GLYCOPEPTIDES AND USES THEREOF” (Arizona Board of Regents on Behalf of the University of …, priority 2013, published 2024).
Where no end group is shown, it is not given here. [ ]: non-standard residue; d: D form. The star is where a group is joined. βGlc = OC[C@H]1O[C@@H](*)[C@H](O)[C@@H](O)[C@@H]1O; Nle = CCCC[C@H](N)C(=O)O

Target: human PAC1 receptor (PAC1-CHO clonal cell line) (human), P41586
Assay: cell-based or functional assay

human PAC1 receptor (PAC1-CHO clonal cell line) (human), P41586, sequence (P41586 21-468): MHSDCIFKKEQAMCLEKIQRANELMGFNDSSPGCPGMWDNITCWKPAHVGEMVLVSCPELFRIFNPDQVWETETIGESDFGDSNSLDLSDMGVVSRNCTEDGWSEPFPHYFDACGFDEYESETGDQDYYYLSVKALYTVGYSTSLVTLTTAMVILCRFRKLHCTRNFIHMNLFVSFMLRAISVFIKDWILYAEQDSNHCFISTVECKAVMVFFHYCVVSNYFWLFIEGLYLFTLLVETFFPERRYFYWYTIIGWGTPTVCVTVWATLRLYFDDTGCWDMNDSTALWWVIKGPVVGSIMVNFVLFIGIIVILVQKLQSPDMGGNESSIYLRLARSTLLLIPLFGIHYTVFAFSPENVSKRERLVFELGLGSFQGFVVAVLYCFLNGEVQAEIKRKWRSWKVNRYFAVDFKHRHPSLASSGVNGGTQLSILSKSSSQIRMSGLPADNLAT

B1: Hs…Ñ…-Ser(Glc) (peptide)
peptide: HSDGIFTDSYSRYRKQXAVKKYLAAVLS
modifications: here or on the partner: D-Serine at 2 (s); L-Nor-Leucine at 17 (Ñ, written X in letters); Ser 28 = L-Ser(β-D-Glc)
For B1, the EC50 (agonist) was 25.5 nM and the EMax (agonist) was 85%.

B2: Hs…Ñ…-Ser(Glc) (peptide)
peptide: HSDGIFADSYSRYRKQXAVKKYLAAVLS
modifications: here or on the partner: D-Serine at 2 (s); L-Nor-Leucine at 17 (Ñ, written X in letters); Ser 28 = L-Ser(β-D-Glc)
With B2 the EC50 (agonist) was over 250 nM and the EMax (agonist) was -71%.

Work on FTDSYSRYRKQMAVKKYLAAVLGKRYKQRVKNK (ends and bridges not checked) [PACAP6-38] yielded an antagonist potency, variable concentration mode versus 5 nM PACAP1-27 (calcium flux, FLIPR) of over 333 nM and a pA2 (Gaddum/Schild EC50 shift model) of 201 nM.

B3: Hs…Ñ…-Ser(Glc) (peptide)
peptide: HSDGIFTDSYSRYRKQXAVKKYLAAVS
modifications: here or on the partner: D-Serine at 2 (s); L-Nor-Leucine at 17 (Ñ, written X in letters); Ser 27 = L-Ser(β-D-Glc)
In the case of B3, the EC50 (agonist) is reported as 54.5 nM and the EMax (agonist) is reported as 86%.

B4: PACAP1-27-S-G (peptide)
peptide: HSDGIFTDSYSRYRKQMAVKKYLAAVLS
modifications: here or on the partner: added C-terminal serine carries glucose (serine glucoside)
B4 was tested, and the normalized efficacy (calcium flux, FLIPR; PACAP1-27 = 100%) was 102% and the potency of PAC1 activation (calcium flux, FLIPR, agonist mode, PAC1-CHO cells) was 5.68 nM.

HSDGIFTDSYSRYRKQMAVKKYLAAVL (ends and bridges not checked) [PACAP1-27] showed an EMax (agonist) of 100%.

For HSDGIFTDSYSRYRKQLAVKKYLAAVLS(melibiose)-NH2 […-Ser(Mel)], the EC50 (agonist) was 0.57 nM and the EMax (agonist) was 99%.

For H[dS]DGIFTDSYSRYRKQ[Nle]AVKKYLAALS(βGlc)L-NH2 (ends and bridges not checked) [Hs…Ñ…-Ser(Glc)-L], the EC50 (agonist) was over 250 nM and the EMax (agonist) was -79%.
